Measurements as given in US20180169177A1, “POLYPEPTIDE SPECIFICALLY BINDING TO CD34 MOLECULE AND USE THEREOF” (Guangzhou Yidai Pharmaceutical Co., Ltd., priority 2015, published 2018).

How the values were obtained:
[1] = molecular target: T1, CD34 molecules of K562 leukemia cells (Homo sapiens, UniProt P28906); test: Co-immunoprecipitation of CD34 binding polypeptide, fluorescence intensity by fluorospectrophotometer; details: 2b; for binding of polypeptide to protein co-immunoprecipitated with CD34 antibodies (fluorescence intensity): K562 total protein, CD34 antibody co-immunoprecipitation, NanoDrop 3300, FIGS. 2a
T1 construct: endogenous in cells; host or cells: K562
T1 sequence (P28906 32-385): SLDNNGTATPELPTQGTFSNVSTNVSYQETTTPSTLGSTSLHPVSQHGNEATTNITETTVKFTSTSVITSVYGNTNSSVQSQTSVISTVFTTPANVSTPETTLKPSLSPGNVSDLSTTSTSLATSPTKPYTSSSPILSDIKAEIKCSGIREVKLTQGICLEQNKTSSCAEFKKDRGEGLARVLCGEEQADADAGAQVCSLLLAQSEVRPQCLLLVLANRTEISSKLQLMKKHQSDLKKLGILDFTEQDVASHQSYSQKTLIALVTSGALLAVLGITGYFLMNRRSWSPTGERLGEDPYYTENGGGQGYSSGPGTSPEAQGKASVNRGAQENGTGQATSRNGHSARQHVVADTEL
Description: (1) extracting total protein: wash K562 cell once with pre-cooled PBS buffer solution, remove the PBS, add 500 μL non-denatured protein lysate containing protease inhibitor into the culture dish, collect cells into a 1.5 mL centrifuge tube, perform ultra sonication for 4 times, 4 seconds each time, leave them on the ice for 30 minutes, and centrifuge them at 8000 rpm at 4° C. for 20 minutes, transfer the supernatant into a new centrifuge tube to obtain total protein products;
(2) pretreatment of cellular total protein: add 50 μL confining liquid of normal goat serum into the cellular total protein products, and incubate them on the ice for 1 hour, then add 100 μL G-protein microsphere suspension (Calbiochem), incubate them at 4° C. for 20 minutes, centrifuge and remove the G-protein microsphere.
(3) Co- immunoprecipitation: add CD34 antibodies (AR) into the total protein pretreated in step (2), take it as experimental groups, set control groups, wherein equal amount of PBS antibody diluent is added, and incubate them at 4° C. for 8 hours;
(4) Binding of polypeptides and purification of G-protein antibodies: add polypeptides 17 and 19 into respective experimental groups and control group respectively, meanwhile add G-protein microsphere suspension, and incubate them at 4° C. for 4 hours;
(5) Washing and elution: centrifuge at 4° C. to remove the supernatant, use washing liquor to wash for three times, centrifuge and remove the supernatant, add 2× SDS buffer solution in a volume the same as that of G-protein microsphere, treat them at 50° C. for 10 minutes, centrifuge and remove the microspheres, transfer the supernatant into a new EP tube, and add DTT (dithiothreitol) until the final concentration is 100 mM;
(6) Testing fluorescence intensities of experimental groups and control groups using micro fluorospectro photometer (NanoDrop 3300).

[2] = molecular target: T2, CD34 molecules in K562 leukemia cells (Homo sapiens, UniProt P28906); test: Immunofluorescence co-localisation of CD34 binding polypeptide and CD34 antibodies; details: fixed K562 cells, confocal microscope, FIGS. 3a, 3b
T2 construct: endogenous in cells; host or cells: K562
T2 sequence (P28906 32-385): T1 sequence (P28906 32-385)
Description: (1) Preparation of cells: incubate K562 cell suspension in an incubator (37° C., 5% CO2). When the cell density reaches 80%, centrifuge and remove the culture solution, wash it once using PBS buffer solution, centrifuge it, take the cell suspension and drop it onto a glass slide coated with polylysine, and use cold acetone to fix for 10 minutes after drying.
(2) Use PBS buffer solution to wash for three times, 5 minutes each time, and then use 5% BSA confining liquid to seal it at room temperature for 1 hour.
(3) Incubation of primary antibodies: drop the primary antibody diluent of CD34 antibodies (AR) onto a slide, incubate it at 4° C. over night. Use PBS buffer solution to wash it for three times, 5 minutes each time.
(4) Incubation of second antibodies and binding to polypeptide: add polypeptides 17 and 19 into diluted anti-rabbit antibodies labeled by Alexa Fluor 561 respectively, drop them onto cover glasses, incubate them at room temperature and keep shielded from light for 1 hour. Use PBS buffer solution to wash for three times, 5 minutes each time.
(5) Use 1 μg/mL DAPI to stain at room temperature and keep shielded from light for 5 minutes, use PBS buffer solution to wash it for three times, 5 minutes each time.
(6) After mounting with anti-fluorescence quenching agent, use laser scanning confocal microscope to observe and photograph.

K562 cells [3] = test: Effect of CD34 binding polypeptide on adhesion of CD34 positive cells; type: cell-based; details: 2 μg/mL polypeptide, 6 hours, plates of FN, Collagen I and Mareigel, versus control NC, FIG. 4
Description: Add the polypeptides 17 and 19 into incubating holes to set respective experimental groups (final concentration of polypeptide is 2 μg/mL).

[4] = test system: CD34 negative cells (peripheral blood cells); test: Magnetic separation, binding to CD34 negative blood cells; type: cell-based; details: other blood cells
Description: Mix polypeptides 17 and 19 adhering to the surfaces of nano-magnetic beads respectively with K562 cells and peripheral blood cells, and incubate them for 1 hour. Use magnetic sorter to sort, and the sorting efficiency of K562 cells is higher than 95%. […] A schematic diagram of the example is shown in FIG. 5, and the specific operation for magnetic separation of the example can be performed according to conventional magnetic techniques in the art.

[5] = test system: ductal epithelial cells and vascular endothelial cells of salivary gland; test: Immunofluorescence binding to salivary gland tissue sections; type: cell-based, human; details: 2 μg/mL polypeptide, 1 hour, room temperature, 6 μm frozen sections, FIG. 6a
Description: In the example, immunofluorescence is used to test the binding between polypeptide and ductal epithelial cells and vascular endothelial cells of salivary gland.
Embed the human salivary gland tissues with OCT, and slice them in a thickness of 6 μm at −20° C., fix with acetone for 15 minutes, use PBS to wash them for three times, 5 minutes each time. Incubate them with 2 μg/mL CD34 binding polypeptide (polypeptide 17) at room temperature for 1 hour, use PBS to wash for three times, 10 minutes each time. Drop 20 μL anti-fluorescence quenching agent for mounting, and preserve them being protected from light at 4° C., fluorescence microscope is used to observe and photograph.

MNNG/HOS cells = test: Binding between CD34 binding polypeptide and human osteosarcoma cell line MNNG/HOS; type: cell-based; details: 2 μg/ml, 37° C., 2 hours, CD34 negative cell line, fluorescence microscope
Description: Add 2 μg/ml polypeptides 17 and 19 into two culture dishes of well-grown MNNG/HOS cells (density of 80%) respectively, incubate them in an incubator at 37° C. for 2 hours, remove the culture solution, use 1 ml PBS to wash them for 3 times, add 5 ml culture solution, and use a fluorescence microscope to observe the binding between polypeptide and MNNG/HOS cells.

K562 cells [6] = test: Effect of CD34 binding polypeptide on proliferation of K562 cells; type: cell-based; details: 2 μg/ml polypeptide, replenished every 48 hours, counted for 6 days, FIG. 9
Description: (1) Inoculate well-grown K562 cells in a 24-hole plate in cell concentration of 6000/ml/hole; set two experimental groups, wherein polypeptides 17 and 19 (polypeptide concentration is 2 μg/ml) are added into culture solutions respectively; set control groups, wherein polypeptide diluent in the same amount of polypeptide is added into the culture solution.
(2) Count once every 24 hours, replenish CD34 binding polypeptide (polypeptide concentration is 2 μg/ml) once every 48 hours, and the counting lasts for 6 days; repeat the experiment three times;
(3) draw cell growth curves, wherein the Y-axis is indicative of mean value of cell density each day, the X-axis is indicative of incubation time.

Row | Substance | binding of polypeptide to protein co-immunoprecipitated with CD34 antibodies (fluorescence intensity) [1] | binding to CD34 molecules (overlap of polypeptide green fluorescence and CD34 antibody red fluorescence) [2] | adhesion of K562 cells (count of adherent cells) (K562 cells [3]) | binding to CD34 negative cells [4] | binding to ductal epithelial cells and vascular endothelial cells of salivary gland tissue [5] | binding between fluorescent polypeptide and MNNG/HOS cells (MNNG/HOS cells) | proliferation rate of K562 leukemia cells versus control group (K562 cells [6]) | binding specificity, comparison between polypeptides ([1]; co-immunoprecipitation with CD34 antibodies, FIGS. 2a)
1 | polypeptide 17: synthetic CD34 binding polypeptide displayed by phage 17, amino acid sequence SEQ ID NO: 1 (SSFASKKGYPFNRMCAS; Non-antibody binding protein capable of binding to CD34) | can specifically bind | have bound to CD34 molecules | inhibit the adhesion of K562 cells significantly | won't bind to CD34 negative cells | bind to ductal epithelial cells and vascular endothelial cells of salivary gland tissue | No binding | no significant difference | –
2 | polypeptide 19: synthetic CD34 binding polypeptide displayed by phage 19, amino acid sequence SEQ ID NO: 2 (SSLGWWGPRRDFPGRRERIYLGIPWLSLLGSGAPSPV; Non-antibody binding protein capable of binding CD34) | can specifically bind | have bound to CD34 molecules | inhibit the adhesion of K562 cells significantly, especially the culture solution containing the polypeptide 19 | won't bind to CD34 negative cells | – | No binding | no significant difference | better binding specificity than the polypeptide 17
